Experiment in all cases: cell-based or functional assay
Assay [1] has as its target SARS-CoV-2 spike (S) protein of Omicron sublineage BQ.1.1 (R346T, K444T, F486V) (SARS-CoV-2) (UniProt P0DTC2).
The target of assay [2] is SARS-CoV-2 spike (S) protein of Omicron sublineage BA.2.75 (G446S) (SARS-CoV-2) (UniProt P0DTC2).
The target in assay [3] is SARS-CoV-2 spike (S) protein of Omicron sublineage BJ.1 (R346T, V445P, G446S) (SARS-CoV-2) (UniProt P0DTC2).
Assay [4] addresses SARS-CoV-2 spike protein, Alpha variant (B.1.1.7) (SARS-CoV-2).
The target in assay [5] is SARS-CoV-2 spike protein, C.1.2 variant (SARS-CoV-2).
Assay [6] concerns the target SARS-CoV-2 spike (S) protein, Omicron variant BA.1 (SARS-CoV-2) (UniProt P0DTC2).
Assay [7] has as its target SARS-CoV-2 spike (S) protein, Omicron variant BA.2.12.1 (SARS-CoV-2) (UniProt P0DTC2).
Assay [8] deals with SARS-CoV-2 spike protein, Beta variant 1 (B.1.351 v1) (SARS-CoV-2).
Assay [9] concerns the target SARS-CoV-2 spike protein, Gamma variant (P.1) (SARS-CoV-2).
Assay [10] concerns the target SARS-CoV-2 spike protein, Mu variant (B.1.621) (SARS-CoV-2).
For assay [11], the target named is SARS-CoV-2 spike (S) protein, Omicron variant BA.2 (SARS-CoV-2) (UniProt P0DTC2).
Assay [12] deals with SARS-CoV-2 spike protein, Delta variant (B.1.617.2) (SARS-CoV-2).

In US20240109955A1 one finds IC50, pseudovirus neutralization and IC80, pseudovirus neutralization data, which are given here for 16 substances.

Sequence of MX492 (A19-46 × A23-58H/B1-182L) (bispecific antibody) (chain): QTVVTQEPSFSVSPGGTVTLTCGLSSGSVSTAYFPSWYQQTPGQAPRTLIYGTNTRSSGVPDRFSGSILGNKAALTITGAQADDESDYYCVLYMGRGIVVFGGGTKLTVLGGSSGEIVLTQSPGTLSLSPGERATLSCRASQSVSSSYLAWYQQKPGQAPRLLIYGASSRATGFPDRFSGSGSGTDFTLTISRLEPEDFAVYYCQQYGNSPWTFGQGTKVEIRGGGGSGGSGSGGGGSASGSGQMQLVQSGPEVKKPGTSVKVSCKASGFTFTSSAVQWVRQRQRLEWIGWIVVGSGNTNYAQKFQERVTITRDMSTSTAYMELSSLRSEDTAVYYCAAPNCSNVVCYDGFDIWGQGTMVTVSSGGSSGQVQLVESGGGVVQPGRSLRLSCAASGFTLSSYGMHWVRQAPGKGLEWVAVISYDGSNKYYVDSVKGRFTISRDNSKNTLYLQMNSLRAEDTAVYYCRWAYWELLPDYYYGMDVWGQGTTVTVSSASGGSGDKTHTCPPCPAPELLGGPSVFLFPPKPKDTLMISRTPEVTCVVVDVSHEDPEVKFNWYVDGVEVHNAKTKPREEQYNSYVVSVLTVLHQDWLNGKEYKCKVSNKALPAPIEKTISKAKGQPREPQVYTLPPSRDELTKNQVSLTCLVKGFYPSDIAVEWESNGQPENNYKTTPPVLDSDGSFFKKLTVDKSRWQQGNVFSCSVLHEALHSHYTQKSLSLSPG
Sequence of MX468 (A19-61 × A23-58H/B1-182L CL-CH1) (bispecific antibody) (chain): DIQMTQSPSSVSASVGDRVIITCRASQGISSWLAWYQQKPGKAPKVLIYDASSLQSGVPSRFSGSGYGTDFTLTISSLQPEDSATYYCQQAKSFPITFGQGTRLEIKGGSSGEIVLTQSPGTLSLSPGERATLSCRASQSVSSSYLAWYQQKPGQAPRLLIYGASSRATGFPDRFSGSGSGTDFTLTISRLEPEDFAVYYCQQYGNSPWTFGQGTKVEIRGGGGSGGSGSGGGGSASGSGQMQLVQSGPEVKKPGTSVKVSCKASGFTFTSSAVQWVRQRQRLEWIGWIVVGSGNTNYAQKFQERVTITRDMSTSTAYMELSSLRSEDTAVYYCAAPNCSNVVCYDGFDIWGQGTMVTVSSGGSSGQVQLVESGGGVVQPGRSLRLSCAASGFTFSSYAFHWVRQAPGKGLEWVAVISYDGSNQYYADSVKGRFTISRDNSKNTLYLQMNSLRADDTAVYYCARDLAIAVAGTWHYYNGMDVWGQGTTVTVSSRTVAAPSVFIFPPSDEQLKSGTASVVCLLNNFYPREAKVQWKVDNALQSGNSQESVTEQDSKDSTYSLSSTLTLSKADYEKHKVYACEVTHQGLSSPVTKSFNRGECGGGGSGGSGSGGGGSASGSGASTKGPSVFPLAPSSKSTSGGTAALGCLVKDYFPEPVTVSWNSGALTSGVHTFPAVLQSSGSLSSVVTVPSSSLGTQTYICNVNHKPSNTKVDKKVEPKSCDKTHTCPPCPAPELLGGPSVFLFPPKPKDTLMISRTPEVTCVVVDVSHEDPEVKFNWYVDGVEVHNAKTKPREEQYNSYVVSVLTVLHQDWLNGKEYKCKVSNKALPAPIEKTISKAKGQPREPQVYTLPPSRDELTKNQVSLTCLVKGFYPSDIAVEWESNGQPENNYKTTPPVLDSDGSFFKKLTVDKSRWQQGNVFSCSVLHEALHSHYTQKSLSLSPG
Sequence of MX467 (A23-58H/B1-182L × A19-61 CL-CH1) (bispecific antibody) (chain): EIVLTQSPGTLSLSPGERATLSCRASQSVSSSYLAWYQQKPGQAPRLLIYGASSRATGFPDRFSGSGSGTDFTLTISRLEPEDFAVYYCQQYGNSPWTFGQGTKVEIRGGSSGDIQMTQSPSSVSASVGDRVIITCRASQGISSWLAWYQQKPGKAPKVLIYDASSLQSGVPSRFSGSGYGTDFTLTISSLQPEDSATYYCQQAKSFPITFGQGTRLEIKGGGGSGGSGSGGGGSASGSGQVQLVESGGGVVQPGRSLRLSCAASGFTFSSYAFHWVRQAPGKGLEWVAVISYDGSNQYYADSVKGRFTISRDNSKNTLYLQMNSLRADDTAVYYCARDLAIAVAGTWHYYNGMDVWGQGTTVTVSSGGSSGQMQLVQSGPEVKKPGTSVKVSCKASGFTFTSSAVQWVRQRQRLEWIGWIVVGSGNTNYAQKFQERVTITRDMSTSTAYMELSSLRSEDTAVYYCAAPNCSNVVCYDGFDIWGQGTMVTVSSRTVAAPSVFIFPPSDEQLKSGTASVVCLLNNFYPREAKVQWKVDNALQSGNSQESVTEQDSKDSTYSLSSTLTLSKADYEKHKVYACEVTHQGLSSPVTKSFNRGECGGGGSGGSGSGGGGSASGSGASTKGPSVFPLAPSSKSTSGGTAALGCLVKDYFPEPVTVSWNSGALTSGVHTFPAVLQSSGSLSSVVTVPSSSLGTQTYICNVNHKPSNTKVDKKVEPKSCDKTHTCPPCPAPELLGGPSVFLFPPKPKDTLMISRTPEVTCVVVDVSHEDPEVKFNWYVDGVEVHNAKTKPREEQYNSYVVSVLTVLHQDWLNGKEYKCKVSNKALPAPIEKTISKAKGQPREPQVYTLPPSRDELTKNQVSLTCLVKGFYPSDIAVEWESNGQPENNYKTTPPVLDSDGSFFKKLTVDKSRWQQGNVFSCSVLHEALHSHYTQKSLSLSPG
Sequence of A19-46.1 antibody (VH): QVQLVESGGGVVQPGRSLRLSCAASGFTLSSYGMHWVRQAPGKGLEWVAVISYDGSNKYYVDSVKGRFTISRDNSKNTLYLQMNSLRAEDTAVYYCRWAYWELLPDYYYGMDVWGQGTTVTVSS
Sequence of A19-46.1 antibody (VL): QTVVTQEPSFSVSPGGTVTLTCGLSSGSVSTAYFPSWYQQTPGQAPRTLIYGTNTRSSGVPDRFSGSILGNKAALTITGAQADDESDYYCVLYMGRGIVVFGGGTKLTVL
Sequence of MX491 (A23-58H/B1-182L × A19-46 CL-CH1) (bispecific antibody) (chain): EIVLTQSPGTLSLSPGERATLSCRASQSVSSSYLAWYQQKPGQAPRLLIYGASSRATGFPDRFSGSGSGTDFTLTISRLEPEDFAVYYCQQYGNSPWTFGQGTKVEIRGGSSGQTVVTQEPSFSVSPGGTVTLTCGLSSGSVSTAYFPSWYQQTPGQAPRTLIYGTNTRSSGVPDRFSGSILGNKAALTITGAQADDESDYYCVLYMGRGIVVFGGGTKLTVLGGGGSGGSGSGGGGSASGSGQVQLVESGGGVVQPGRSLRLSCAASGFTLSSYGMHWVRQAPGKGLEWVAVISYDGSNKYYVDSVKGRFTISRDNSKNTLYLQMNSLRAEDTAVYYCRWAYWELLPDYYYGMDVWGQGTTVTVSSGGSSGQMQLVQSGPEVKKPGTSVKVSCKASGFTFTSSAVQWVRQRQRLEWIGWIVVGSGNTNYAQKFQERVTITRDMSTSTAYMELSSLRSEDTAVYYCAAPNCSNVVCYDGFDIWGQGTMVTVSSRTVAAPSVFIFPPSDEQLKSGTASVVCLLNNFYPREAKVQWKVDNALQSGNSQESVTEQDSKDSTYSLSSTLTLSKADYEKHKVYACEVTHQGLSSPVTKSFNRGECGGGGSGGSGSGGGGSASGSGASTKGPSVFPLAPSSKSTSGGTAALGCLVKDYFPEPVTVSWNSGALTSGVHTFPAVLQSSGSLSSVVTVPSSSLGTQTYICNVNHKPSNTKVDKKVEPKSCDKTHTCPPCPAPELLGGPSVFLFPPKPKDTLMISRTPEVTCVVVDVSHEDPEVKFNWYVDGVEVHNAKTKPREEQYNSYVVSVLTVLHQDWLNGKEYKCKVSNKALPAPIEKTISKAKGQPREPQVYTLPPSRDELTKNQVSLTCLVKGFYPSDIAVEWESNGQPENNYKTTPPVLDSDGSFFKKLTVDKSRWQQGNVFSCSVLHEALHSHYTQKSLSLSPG
Sequence of MX412 (A23-58H/B1-182L × A19-61) (bispecific antibody) (chain): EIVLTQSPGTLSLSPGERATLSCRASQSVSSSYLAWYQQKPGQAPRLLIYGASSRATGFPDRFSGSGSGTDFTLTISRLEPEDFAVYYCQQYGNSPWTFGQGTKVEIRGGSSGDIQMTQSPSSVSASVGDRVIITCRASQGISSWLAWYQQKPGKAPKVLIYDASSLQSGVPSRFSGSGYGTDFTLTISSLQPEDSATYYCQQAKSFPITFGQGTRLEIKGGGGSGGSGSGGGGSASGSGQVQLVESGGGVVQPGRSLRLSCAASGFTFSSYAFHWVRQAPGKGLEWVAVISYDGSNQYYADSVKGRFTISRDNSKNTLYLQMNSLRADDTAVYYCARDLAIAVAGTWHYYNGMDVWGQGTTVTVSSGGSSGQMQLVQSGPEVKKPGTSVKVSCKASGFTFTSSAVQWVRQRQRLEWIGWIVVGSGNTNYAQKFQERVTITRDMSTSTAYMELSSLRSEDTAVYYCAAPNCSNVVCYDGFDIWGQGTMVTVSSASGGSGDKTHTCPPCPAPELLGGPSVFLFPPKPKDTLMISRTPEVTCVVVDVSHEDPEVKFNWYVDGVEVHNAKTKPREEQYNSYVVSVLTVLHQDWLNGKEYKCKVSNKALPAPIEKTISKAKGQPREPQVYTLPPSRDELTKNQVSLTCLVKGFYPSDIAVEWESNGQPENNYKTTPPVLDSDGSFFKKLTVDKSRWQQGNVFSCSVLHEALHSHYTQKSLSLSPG

Consider A19-46.1 antibody, for which the IC50, pseudovirus neutralization in assay [1] is > 10000 nM; in assay [2], 148 nM; in assay [3] it was > 10000 nM. The IC80, pseudovirus neutralization is > 10000 nM in [1], 352 nM in [2] and > 10000 nM in assay [3].
For the substance “MX413 (A19-61 × A23-58H/B1-182L) (bispecific antibody)”, the IC50, pseudovirus neutralization in [4] was determined as 0.0547 nM; in assay [5], 0.0109 nM; in [6] it was 6.58 nM; in [7], 0.0149 nM; in assay [8], 0.0386 nM; in assay [9], 0.025 nM. For the same substance, the IC50, pseudovirus neutralization in assay [10] was 0.089 nM; in [11], 0.0141 nM; in assay [12] it was 0.0193 nM. The IC80, pseudovirus neutralization in [4] turned out to be 0.141 nM; in assay [5] it was 0.026 nM; in assay [6], 20.5 nM; in assay [7], 0.0614 nM; in [8] it was 0.092 nM; in assay [9], 0.0547 nM. Also, the IC80, pseudovirus neutralization came to 0.166 nM in assay [10], 0.0466 nM in assay [11] and 0.0655 nM in assay [12].
Regarding “MX468 (A19-61 × A23-58H/B1-182L CL-CH1) (bispecific antibody)”, the IC50, pseudovirus neutralization in assay [6] was 1.33 nM; in assay [7] it was 0.0224 nM; in assay [11], 0.0289 nM. The figures for the IC80, pseudovirus neutralization in [6], in assay [7] and in [11] were 4.06 nM, 0.0698 nM and 0.0617 nM, respectively.
As to “MX409 (A23-58H/B1-182L Tetravalent) (antibody)”, the IC50, pseudovirus neutralization stood at 0.0139 nM in assay [4]; 0.005 nM in assay [5]; 2.03 nM in assay [6]; 8.96 nM in [7]; 0.0073 nM in assay [8]; 0.00182 nM in assay [9]. Besides, the IC50, pseudovirus neutralization in assay [10] is 0.0046 nM; in [11], 4.9 nM; in assay [12], 0.00313 nM. Besides, the IC80, pseudovirus neutralization in [4] is 0.0286 nM; in [5], 0.0099 nM; in assay [6], > 66.7 nM; in assay [7] it was 52.7 nM; in assay [8] it was 0.0175 nM; in assay [9], 0.00565 nM. Also, the IC80, pseudovirus neutralization is 0.0124 nM in [10], > 66.7 nM in assay [11] and 0.00882 nM in assay [12].
Turning to “MX466 (A23-58H/B1-182L Cl-CH1 Tetravalent) (antibody)”, the IC50, pseudovirus neutralization was found to be 0.57 nM in [6], 0.586 nM in [7] and 2.47 nM in [11]. The IC80, pseudovirus neutralization in assay [6] amounted to 8.23 nM; in assay [7] it was 18 nM; in assay [11] it was 44.2 nM.
As to “MX 490 (A23-58H/B1-182L × A19-46) (bispecific antibody)”, the IC50, pseudovirus neutralization in assay [6] is 0.22 nM; in [7], > 6.7 nM; in assay [11] it was 0.392 nM. Besides, the figures for the IC80, pseudovirus neutralization in [6], in [7] and in [11] were 0.484 nM, > 6.7 nM and 0.896 nM, respectively.
“MX491 (A23-58H/B1-182L × A19-46 CL-CH1) (bispecific antibody)”: the IC50, pseudovirus neutralization in assay [6] turned out to be 0.0316 nM; in [7], 1.44 nM; in assay [11], 0.0489 nM. The results for the IC80, pseudovirus neutralization in assay [6], in assay [7] and in assay [11] were 0.0928 nM, 7.81 nM and 0.114 nM, respectively.
As to “MX492 (A19-46 × A23-58H/B1-182L) (bispecific antibody)”, the IC50, pseudovirus neutralization in [6] is 0.0058 nM; in [7], 0.107 nM; in assay [11], 0.0201 nM. Further, the IC80, pseudovirus neutralization in assay [6] was 0.0369 nM; in assay [7], 0.93 nM; in assay [11], 0.0451 nM.
On to “MX180 (B1-182 × A19-46) (bispecific antibody)”, for which the IC50, pseudovirus neutralization in assay [6] was determined as 0.0187 nM; in assay [7], 0.584 nM; in [11] it was 0.041 nM. Moreover, the IC80, pseudovirus neutralization in [6] came to 0.0652 nM; in [7], 2.82 nM; in [11], 0.103 nM.
A23-58 mAb (antibody): the IC50, pseudovirus neutralization in assay [4] came out at 0.0329 nM; in [5] it was 0.0287 nM; in [6], 0.853 nM; in assay [7], 0.647 nM; in [8] it was 0.123 nM; in assay [9], 0.0097 nM. Also, the IC50, pseudovirus neutralization was 0.124 nM in [10], 1.68 nM in assay [11] and 0.0133 nM in assay [12]. For the same substance, the IC80, pseudovirus neutralization in [4] is 0.104 nM; in assay [5], 0.0656 nM; in assay [6], 4.24 nM; in [7], 4.96 nM; in [8], 0.339 nM; in [9], 0.0437 nM. The IC80, pseudovirus neutralization was found to be 0.26 nM in assay [10], 5.69 nM in assay [11] and 0.0358 nM in [12].
For the substance “MX413 (A19-61 x A23-58H/B1-182L) bispecific, tetravalent molecule with Fc (bispecific antibody)”, the IC50, pseudovirus neutralization in assay [1] is > 10000 nM; in [2], 21 nM; in assay [3], 3210 nM. Moreover, the IC80, pseudovirus neutralization in assay [1] is > 10000 nM; in assay [2], 71 nM; in [3], > 10000 nM.
With “MX493 (A19-46 × A23-58H/B1-182L CL-CH1) (bispecific antibody)”, the figures for the IC50, pseudovirus neutralization in assay [6], in assay [7] and in [11] were 0.0158 nM, 0.0331 nM and 0.02 nM, respectively. The IC80, pseudovirus neutralization is 0.0387 nM in assay [6], 0.0858 nM in assay [7] and 0.0464 nM in assay [11].
In the case of “MX179 (A19-46 × B1-182) (bispecific antibody)”, the IC50, pseudovirus neutralization in assay [6] was 0.0068 nM; in [7], 0.167 nM; in assay [11], 0.0137 nM. Also, the IC80, pseudovirus neutralization in assay [6] came to 0.0193 nM; in assay [7], 0.929 nM; in assay [11] it was 0.0389 nM.
For “MX467 (A23-58H/B1-182L × A19-61 CL-CH1) (bispecific antibody)”, the IC50, pseudovirus neutralization stood at 18.5 nM in [6], 0.0181 nM in [7] and 0.0373 nM in [11]. Moreover, the IC80, pseudovirus neutralization in assay [6] is 69.4 nM; in [7], 0.127 nM; in assay [11], 0.0738 nM.
For the substance A23-58H/B1-182L mAb (antibody), the IC50, pseudovirus neutralization in assay [4] amounted to 0.0174 nM; in assay [5], 0.0207 nM; in assay [6], 0.364 nM; in assay [7], 0.83 nM; in assay [8] it was 0.0305 nM; in assay [9], 0.0116 nM. Further, the IC50, pseudovirus neutralization in [10] was 0.0402 nM; in [11], 0.544 nM; in assay [12] it was 0.0104 nM. In addition, the IC80, pseudovirus neutralization was 0.0376 nM in assay [4]; 0.0348 nM in assay [5]; 1.39 nM in assay [6]; 3.27 nM in assay [7]; 0.0966 nM in assay [8]; 0.0237 nM in assay [9]. Moreover, the IC80, pseudovirus neutralization is 0.108 nM in assay [10], 2.48 nM in assay [11] and 0.0205 nM in assay [12].
“MX412 (A23-58H/B1-182L × A19-61) (bispecific antibody)”: the IC50, pseudovirus neutralization came to 0.058 nM in assay [4]; 0.014 nM in [5]; 8.96 nM in assay [6]; 0.0615 nM in assay [7]; 0.0365 nM in [8]; 0.042 nM in assay [9]. Further, the IC50, pseudovirus neutralization in assay [10] was 0.583 nM; in assay [11], 0.0304 nM; in [12], 0.0279 nM. The IC80, pseudovirus neutralization worked out at 0.143 nM in assay [4]; 0.0528 nM in assay [5]; 31.8 nM in assay [6]; 0.178 nM in assay [7]; 0.084 nM in assay [8]; 0.0885 nM in assay [9]. For the same substance, the IC80, pseudovirus neutralization in assay [10] was found to be 1.78 nM; in [11], 0.0803 nM; in assay [12], 0.0625 nM.
